Laboratory results published in PMC6770577 (2019).
No end group written: not given here. *: point of attachment. FITC = O=C1OC2(c3ccc(O)cc3Oc3cc(O)ccc32)c2ccc(NC(=S)*)cc21

Experiments:
S100A1 = biological target: T1, S100A1 (Homo sapiens, UniProt P23297); test: steady-state fluorescence anisotropy
T1 chain: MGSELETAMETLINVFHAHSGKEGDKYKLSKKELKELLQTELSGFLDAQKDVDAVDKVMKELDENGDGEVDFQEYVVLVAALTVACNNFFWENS

CaM = CaM (Homo sapiens, UniProt P0DP23); test: steady-state fluorescence anisotropy

- Kd (S100A1): 17.8 µM
- Kd (CaM): 14.9 µM
Binder: {FITC}-LIGRAYRSNYTRKHFR [TRPM6np]
